This note sets out measurements from the nanobody polyreactivity screen of Harvey et al. (2022).

This series in a line: yeast display, Sf9 membrane polyspecificity reagent, FACS + sequencing; frameworks hold sequencing errors. Put shortly: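 Genes from sorted yeast were amplified by colony PCR, read by MiSeq 2 × 250 sequencing and filtered on CDR length. These cells carried a synthetic nanobody library in Saccharomyces cerevisiae BJ5465 and were sorted by FACS into low and high (top ~1%) gates on anti-HA and streptavidin fluorescence. Polyreactivity is labelled according to the gate of origin.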
Turning to “QVQLVESGGGLVQAGGSLRLSCAASGSIFATYAMGWYRQAPGKERELVAAISSSGSRTYYADSVKGRFTNSRDNAKNTVYLQMNSLKPEDTAVYYCAAGSGRFRPGYGYWGQGTQVTVSS”, the “polyreactivity (PSR sort gate)” value was “high polyreactivity”.

For “QVQLVESGGGLVQAGGSLRLSCAASGSIFATYGMGWYRQAPGKERELVAAITSSGGSTYYADSVKGRFTISRDNAKNTVYLQMNSLKPEDTAVYYCAADSYIIWYGTVVSYGEDSWGQGTQVTVSS”, the “polyreactivity (PSR sort gate)” value was “low polyreactivity”.

On to “QVQLVESGGGLVQAGGSLRLSCAASGSIFAVYAMGWYRQAPGKERELVAAISSRGSSTYYADSVKGRFTISRDNAKNTVYLQMNSLIPEDTEVYYCAARPGIRSYPPGYGYWGQGTQVTVSS”, for which the “polyreactivity (PSR sort gate)” value is “low polyreactivity”.

For the sequence “QVQLVESGGGLVQAGGSLRLSCAASGSIFAVYAMGWYRQAPGKERELVASISRTGTTNYADSVKGRFTISRDNAKNTVYLQMNSLKPEDSAVYYCNADAYLYYKYHWGFTFYQYVYWGQGTEVTVSS”, the “polyreactivity (PSR sort gate)” value is reported as “low polyreactivity”.

For “QVQLVESGGGLVQAGGSLRLSCAASGSIFAVYAMGWYRQAPGKERELVASISRTGTTNYADSVKGRFTISRDNAKNTVYLQMYSLKPEDTAVYYCAARPGSWYPSVPSYNYWGQGTQVTVSS”, the “polyreactivity (PSR sort gate)” value is on record as “low polyreactivity”.

As to “QVQLVESGGGLVQAGGSLRLSCAASGSIFAVYAMGWYRQAPGKERVLVAASSTDYADSVKGRFTISRDNAKNTVYLQMNSLKTEDTAVYYCAKVGFGIPGGFYYWGQGTQVTVSS”, the “polyreactivity (PSR sort gate)” value was “low polyreactivity”.

Turning to “QVQLVESGGGLVQAGGSLRLSCAASGSIFAWNAMGWYRQAPGKERELVAAIRWSSGRTNYADSVKGRFTISRDNAKNTVYLQMNSLKPEDTAVYYCNARVVNYFRPRTGAREYDYWGQGTQVTVSS”, the “polyreactivity (PSR sort gate)” value is “high polyreactivity”.

For the sequence “QVQLVESGGGLVQAGGSLRLSCAASGSIFAWYAMGWYRQAPGKERELVAAIRFRGGSTYYADSVKGRFTISRDNAKNTVYLQMNSLKPEDTAVYYCAGYYWYRSYYWGQGTQVTVSS”, the “polyreactivity (PSR sort gate)” value is listed as “high polyreactivity”.

In the case of “QVQLVESGGGLVQAGGSLRLSCAASGSIFAYAMGWYRQAPGKQRELVAGISSSGGRTYYADSVKGRFTISRDNAKNSVYLQMNSLKPEDTAVYYCAARAQSPPYGYWGQGTQVTVSS”, the “polyreactivity (PSR sort gate)” value was “high polyreactivity”.

Consider “QVQLVESGGGLVQAGGSLRLSCAASGSIFAYNAMGWYRQAPGKVREFVAVITRSDDSTYADSVKGRFTISRDNAKNTVYLQMNSLKPEDTAVYYCAAQPFDIDGGYRVDYWRQGTQVTVSS”, for which the “polyreactivity (PSR sort gate)” value is recorded as “low polyreactivity”.

For the sequence “QVQLVESGGGLVQAGGSLRLSCAASGSIFAYNDMGWYRQAPGKERELVAAIRNGGRTNYADSVKGRFTISRDNAKNTVYLQMNSLKPEDTAVDYWAALNYYGSDYWGQGTQVTVSS”, the “polyreactivity (PSR sort gate)” value was “high polyreactivity”.

In the case of “QVQLVESGGGLVQAGGSLRLSCAASGSIFAYYAMGWYRQAPGKERELVAAISRRGATTYYSDSVKGRFTISRDNAKNTVYLQMNSLKPEDTAVYYCAARTPYWTSYLRYWGQGTQVTVSS”, the “polyreactivity (PSR sort gate)” value was “high polyreactivity”.

Turning to “QVQLVESGGGLVQAGGSLRLSCAASGSIFAYYAMGWYRQAPGKERELVAAISSGGSTNYADSVKGRFTISRDNAKNPVYLQMNSLKPEDTAVYDCAKRSYYGLTYYSWGQGTQVTVSS”, the “polyreactivity (PSR sort gate)” value is recorded as “low polyreactivity”.

As to “QVQLVESGGGLVQAGGSLRLSCAASGSIFAYYAMGWYRQAPGKERELVARITYSTDGTYYADSVKGRFTISRDNAKNTVYLQMNSLKPEDTAVYYCAVDTWWGFKRYKFDYWGQGTQVTVSS”, the “polyreactivity (PSR sort gate)” value is “low polyreactivity”.

Take “QVQLVESGGGLVQAGGSLRLSCAASGSIFAYYAMGWYRQAPGKERELVAYISRSGGITYYADSVKGRFTLSRDNAKNTVYLQMNSLKPVDTAVDYCAARYSVRPISIYPFDFGYWGQGTQVTVSS”: the “polyreactivity (PSR sort gate)” value is “low polyreactivity”.

Take “QVQLVESGGGLVQAGGSLRLSCAASGSIFDDYAMGWYRKAPGKERELVAAITSGGSTYYADSVKGRFTISRDNAKNTVYLQMNSLKPEDTAVYYRATRYHWSSSFAPVGAYGYWGQGTQVTVSS”: the “polyreactivity (PSR sort gate)” value was “low polyreactivity”.

Consider “QVQLVESGGGLVQAGGSLRLSCAASGSIFDDYAMGWYRQAPGKERELVAAIDYTGGSTYYADSVKGRFTISRDNAKNTVYLQMNSLIPEDTAVYYCAAEVRVYYYLGGGYSWGQGTQVTVSS”, for which the “polyreactivity (PSR sort gate)” value was “low polyreactivity”.

As for “QVQLVESGGGLVQAGGSLRLSCAASGSIFDDYAMGWYRQAPGKERELVAAISWSGGRPYYADSVKGRFTNSRDNAKNTVYLPMNSLKPEDTAVYYCAATTGVRSRRYYYWVQGTQVTVSS”, the “polyreactivity (PSR sort gate)” value is on record as “low polyreactivity”.

Regarding “QVQLVESGGGLVQAGGSLRLSCAASGSIFDDYAMGWYRQAPGKERELVAAISWSGGRTYYADSVKGRFTISRDNAKNTVYLQMNSLKPEDTAVYYCAASTGVRSRRYYYWGQGTQVTVSS”, the “polyreactivity (PSR sort gate)” value is reported as “low polyreactivity”.

“QVQLVESGGGLVQAGGSLRLSCAASGSIFDDYAMGWYRQAPGKERELVAAITSGGSTYYADSVKGRFTISLDNAKNTVYLQMNSLKPEDTAVYYRATRYHWSSSFAPVGAYGYWGQATQVTVSS”: the “polyreactivity (PSR sort gate)” value was “low polyreactivity”.

As to “QVQLVESGGGLVQAGGSLRLSCAASGSIFDENAMGWYRQAPGKERELVAAITSTDSTNYADSVKGRFTISRDNAKNTVYLQMNSLKPEDTAVYYCARDIKHATSYEALYYSDYDYWGQGTQVTVSS”, the “polyreactivity (PSR sort gate)” value is recorded as “low polyreactivity”.

With “QVQLVESGGGLVQAGGSLRLSCAASGSIFDFYSMGWYRQAPGKERELVAAISRGGSTYYADSVKGRFTISRDNAKNTVYFLMNSLKPEDTGVDYCAARDGVLVSWLWFWCDSPYGYWGQGTQGTVSS”, the “polyreactivity (PSR sort gate)” value was “low polyreactivity”.

As to “QVQLVESGGGLVQAGGSLRLSCAASGSIFDFYVMGWYRQAPGKERELVAGISEGGDSTYYADSVKGRFTISRDNAKNTVYLQMNSLKPEDTAVYYCAKASAKGSYYWGQGTQVTVSS”, the “polyreactivity (PSR sort gate)” value was “low polyreactivity”.

“QVQLVESGGGLVQAGGSLRLSCAASGSIFDGNAMGWYRQAPGKERELVAAITQSGCSTYYADSVKGRFTISRDNAKNTVYFQMNSLKPEDNAVYYCAADVPGVYPYDYWGQGTQVTVSS”: the “polyreactivity (PSR sort gate)” value was “low polyreactivity”.

With “QVQLVESGGGLVQAGGSLRLSCAASGSIFDGYAMGWNSQAPGKERELVAAISQRGGSTYYADSVKGRFTISRDNAKNTVYLQINSLKPEETAVYYCAADSSYGTRDYWGQGTQVTVSS”, the “polyreactivity (PSR sort gate)” value is reported as “low polyreactivity”.

As to “QVQLVESGGGLVQAGGSLRLSCAASGSIFDGYAMGWYTQAPGKERELVADINNGADTYYADSVKGRFTISRDNAKNTVYLQMYSLKPEDTAVYYCAARYGTDTDIQNVARYDYWGQGTQVTVSS”, the “polyreactivity (PSR sort gate)” value was “low polyreactivity”.

On to “QVQLVESGGGLVQAGGSLRLSCAASGSIFDHNAMGWYRQAPGKEREFFARITSSGGGTYYADSVKGRFTISRDNAKNTVYLQMNSLKPEDTAVYYCAKTYYRQGARYPTMFYYWGQGTQVTVSS”, for which the “polyreactivity (PSR sort gate)” value is reported as “low polyreactivity”.

For the sequence “QVQLVESGGGLVQAGGSLRLSCAASGSIFDHYAMGWYRQAPGKERELVAAIRTDGSTKYADSVKGRFTISRDNAKNTVYLQMNSLKPEDTAVYYCAATTGYTARWRNRYIYSYWGQGTEVTVSS”, the “polyreactivity (PSR sort gate)” value was “high polyreactivity”.

On to “QVQLVESGGGLVQAGGSLRLSCAASGSIFDHYTMGWYRQAPGKERELVARISSRGGSTYYADSVKGRFTISRDNAKNTVYLQMNSLKPEDTAVYYCAAYKKLLYYKFGSWGQGTQVTVSS”, for which the “polyreactivity (PSR sort gate)” value is “high polyreactivity”.

Regarding “QVQLVESGGGLVQAGGSLRLSCAASGSIFDIYAMAWYRQAPGKERELVADITSGGRTDYADSVKGRFTISRDNGKNTVYLQMNSLKPEDTAVYYCAADYIWDSVYWYISSYDYWGQGTKVTVSS”, the “polyreactivity (PSR sort gate)” value is recorded as “low polyreactivity”.
